The supplement of paper PMC9170038

Key:
Conditions in all cases: FMN input: 0 or 200 uM; Eterna round: R93 (includes R88 designs)
MS2 coat protein [1] = assay: apparent KD of MS2 coat protein, switch ON state; designed switch direction (-1 OFF switch, 1 ON switch): 1; higher = weaker reporter binding
Method in brief: (§1)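 Illumina sequencing clusters were used for on-chip transcription of designed RNA switches. Titration with SNAP-549-labelled MS2 coat protein followed, in twofold steps from 0.7 or 1.5 nM to 3 µM in 100 mM Tris-HCl pH 7.5, 80 mM KCl, 4 mM MgCl2, without or with constant ligand. Apparent KD is each design's median of fits to normalised cluster binding curves.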

MS2 coat protein [2] = assay: apparent KD of MS2 coat protein, switch OFF state (with FMN for OFF switches, without FMN for ON switches); designed switch direction (-1 OFF switch, 1 ON switch): 1; higher = weaker reporter binding
Method in brief: as §1

MS2 coat protein [3] = assay: apparent KD of MS2 coat protein, switch ON state; designed switch direction (-1 OFF switch, 1 ON switch): -1; higher = weaker reporter binding
Method in brief: as §1

MS2 coat protein [4] = assay: apparent KD of MS2 coat protein, switch OFF state (with FMN for OFF switches, without FMN for ON switches); designed switch direction (-1 OFF switch, 1 ON switch): -1; higher = weaker reporter binding
Method in brief: as §1

| Sequence | apparent KD of MS2 coat protein (MS2 coat protein [1]) | apparent KD of MS2 coat protein (MS2 coat protein [2]) | apparent KD of MS2 coat protein (MS2 coat protein [3]) | apparent KD of MS2 coat protein (MS2 coat protein [4]) |
| --- | --- | --- | --- | --- |
| AAAAGACAUGAGGAUCACCCAUGUGAAAACGUAGGAGGAUAUGUAUGGAAACCAGACUGUACAGAAGGCCUUUGUC [SS1 - 75] | 0.023 µM | 0.0233 µM |  |  |
| AUAACACAUGAGGAUCACCCAUGUAGAUACAAGUCAGGAUAUGCAACCUCAUGAAAAAAAGCAGAAGGGACAAUAA [SS 1 Tesla 3] | 0.0275 µM | 0.0854 µM |  |  |
| GGGAGUAACAGAGAGGAUAUCCAAAGGAAAACAUGAGGAUCACCCAUGUAAAAGGAAGGAAAUUGGGAGAAGGCUCAAAAUAGAA [salish99-ss2-021] | 0.0139 µM | 0.027 µM |  |  |
| AAGAAACAUGAGGAUCACCCAUGUAAAAAUAUGGGAGGAUAUGCGAAAAGAAACAAAGAAGCAGAAGGCCUAAGAA [75%, Ex5 sub 1, 6] | 0.0159 µM | 0.0511 µM |  |  |
| CGAGAGGAGAGAGAGGAUAUCCAAAGGAAAACAUGAGGAUCACCCAUGUAGAAGGUAGGAGAUUGGGAGAAGGCUCAAGAAGAAG [salish99-ss2-159] | 0.0182 µM | 0.026 µM |  |  |
| AAUAUACAUGAGGAUCACCCAUGUUAGGUGGGUCAAGGAUAUCAAAAUAAAUAAAGAACAUGAGAAGGUGAAUAAA [JR_SS001_Sub018] | 0.207 µM | 0.161 µM |  |  |
| AUAAAUAAAGAUCAGGAUAUUAUAAAGAUAACAUGAGGAUCACCCAUGUAAAACAAAAUUAUGGGUAAGAAGGGAUCAAAUAAAU [SS2 M 20] | 0.0469 µM | 0.184 µM |  |  |
| AAAAAACAUGAGGAUCACCCAUGUCGAAAGACGUGAGGAUAUGUACAGACUUCGGUCUGUACAGAAGGCAUGAAAA [SS1 - 1057] | 0.0795 µM | 0.176 µM |  |  |
| GAAAAACAUGAGGAUCACCCAUGUACAAAUAUGGAAGGAUAUACGAUGACGAAAGUCAAAGUAGAAGGUCUAAAAG [Garnet 98] | 0.0209 µM | 0.0254 µM |  |  |
| CGAAGACAUGAGGAUCACCCAUGUGGGAUUAUGGGAGGAUAUACAAAGACGAGAGUCAGAGUAGAAGGCCUAGGAU [salish99-ss1-125(!)] | 0.0224 µM | 0.0478 µM |  |  |
| CGGUAAGAGAGAGAGGAUAUCCAAAGGAAAACAUGAGGAUCACCCAUGUAGAAGGUAGGAAAUUGGGAGAAGGCUCAAGAGAGAG [salish99-ss2-133] | 0.0584 µM | 0.0617 µM |  |  |
| AAGAAACAUGAGGAUCACCCAUGUAGAAACAUGGGAGGAUAUACGAAGACGAAAGUCAAAGUAGAAGGCCUAAAAA [Garnet 90] | 0.0788 µM | 0.198 µM |  |  |
| AAGAAACAUGAGGAUCACCCAUGUAAAUAAAACACAGGAUAUCGAAUAUGGGAGAUUUAACGAGAAGGGUGAAGAA [Meechl MS2 SS1 3] | 0.036 µM | 0.0877 µM |  |  |
| AAAGACAUAGUUCAGGAUAUGGUAAUAGUCACAUGAGGAUCACCCAUGUGCAUUUAUAUGCGCGAUCAGAAGGGAGGUAGAUAUA [SameState2 Malc#18] | 0.0188 µM | 0.0177 µM |  |  |
| AAAAGACAUGAGGAUCACCCAUGUAGGCCAAAGCAAGGAUAUAGGCCACAGGGACGCGGACUAGAAGGUGCACGGC [Orerorge] | 0.0252 µM | 0.0602 µM |  |  |
| CCUAGGAAGAGAGAGGAUAUCCAAAGGAAAACAUGAGGAUCACCCAUGUAAAAGGUAGGAAAUUGGGAGAAGGCUCAAGAGAGAG [salish99-ss2-088] | 0.0209 µM | 0.0239 µM |  |  |
| AGGAAACAUGAGGAUCACCCAUGUAAAUAUGGGCGAGGAUAUCGAAAGAAAAGAAAGAAACGAGAAGGCGCAAAAG [GU on the end] | 0.0492 µM | 0.295 µM |  |  |
| AAAACACAUGAGGAUCACCCAUGUAGAAAUAUGGGAGGAUAUACGAAAACGAAAGUCAAAGUAGAAGGCCUAAAAG [saturn 3] | 0.0309 µM | 0.079 µM |  |  |
| AAGAAACAUGAGGAUCACCCAUGUAAGAUAAACACAGGAUAUGCGAAAGAAACAAAGAAAGCAGAAGGGUGAAGAA [Mat - Same State 1 - Tesla mod - 48] | 0.00976 µM | 0.0268 µM |  |  |
| AGAAAACAUGAGGAUCACCCAUGUCAGAAAUGGCAAGGAUAUAGAAAAGAAAAAGAAAAACUAGAAGGUGCAAAAG [Meechl SS1 R2 m2] | 0.187 µM | 0.153 µM |  |  |
| CAAAACAAAACAUAGGAUAUCAAAACAAAAACAUGAGGAUCACCCAUGUGGAAACAUGAGAAGGAUGAGAAGGAAAACAAAACAA [Meechl SS2 R2 m7] | 0.025 µM | 0.0496 µM |  |  |

| Sequence | apparent KD of MS2 coat protein (MS2 coat protein [1]) | apparent KD of MS2 coat protein (MS2 coat protein [2]) | apparent KD of MS2 coat protein (MS2 coat protein [3]) | apparent KD of MS2 coat protein (MS2 coat protein [4]) |
| --- | --- | --- | --- | --- |
| AGGAAACAUGAGGAUCACCCAUGUAAAAAUAUCACAGGAUAUGGAAACACGAAAGUGAAACCAGAAGGGUGAAAAG [77%, Mat - Mod of Eli, 13] | 0.0132 µM | 0.032 µM |  |  |
| AUAAAUAAAGUUAAGGAUAUUAUAAAGAAAACAUGAGGAUCACCCAUGUAAAAGAAAAUAGUGGGUAAGAAGGUAACAAAUAAAU [SS2 M 18] | 0.0231 µM | 0.0427 µM |  |  |
| AAAAAAAAAAGUCAGGAUAUGCAGGGCGGGACAUGAGGAUCACCCAUGUGGCGGAAAAAAAAAAAGCAGAAGGGACGAAUAAAAAA [William Edwards Deming] | 0.0231 µM | 0.0428 µM |  |  |
| GUGGACGUAGGAUAGGAUAUAUGAAUAAUUACAUGAGGAUCACCCAUGUCCAUUUAUAUGGGAACAUAGAAGGGUUGUGGUUAAC [Mat - Same state - Malcolm Mod - D132] | 0.364 µM | 0.602 µM |  |  |
| AAAAAACAUGAGGAUCACCCAUGUAAAAAAAUGGGAGGAUAUACAAAAACAAAAAAAAAAGUAGAAGGCCUGAAAA [same state 9] | 0.0413 µM | 0.419 µM |  |  |
| GGGAGACAUGAGGAUCACCCAUGUGAGAAGAGGCGAGGAUAUCGAAAGAAAGAAGAGAAACGAGAAGGCGCGAGCA [salish99-SS1-052] | 0.0391 µM | 0.0604 µM |  |  |
| CGGAAGGAGAGGGAGGAUAUCCAAAGGAAAACAUGAGGAUCACCCAUGUAGAAGGUAGGAAAUUGGGAGAAGGCUCAAGAGAGAG [salish99-ss2-131] | 0.0323 µM | 0.0244 µM |  |  |
| GAGAAGGAGAGAGAGGAUAUCCAAAGGAAAACAUGAGGAUCACCCAUGUAAAAGGUAGGAAAUUGGGAGAAGGCUCAAGAGAGAG [salish99-ss2-108(!)] | 0.033 µM | 0.0343 µM |  |  |
| AAAUAAAUGACUAAGGAUAUAUCAAAGAAAACAUGAGGAUCACCCAUGUAAUAAUAAAAAGGGUGAUAGAAGGUAGUCAACAAAC [74%, More Paria 4] | 0.0237 µM | 0.221 µM |  |  |
| AAAUAAAUGACUGAGGAUAUAUCGAUGAAAACAUGAGGAUCACCCAUGUGAUAAUAAAAAGGGUGGUAGAAGGUAGUCAACAAAC [Mod 12 of Pariah 4 by Hyphema in Round 1] | 0.0555 µM | 0.207 µM |  |  |
| AAAAAGUCAGGAUAUACGUAAGUGCGAAAGCACAAAUGGAAACAUGAGGAUCACCCAUGUAGAAGGGACAAGAA [JL In the Red 02 (Mod)] |  |  | 0.0367 µM | 0.0236 µM |
| AACAGUACAGGAUAUACAUGAGGAUCACCCAUGUGAGCAUUAAAAGGCGUACCUAAAAGUAGAAGGGUACUGGA [JL Maslow Revisted mod 22] |  |  | 0.0248 µM | 0.0667 µM |
| AGGCGGGUAGGAUAUGCGUACUGACGGGAAAACUGAAUGGUACAUGAGGAUCACCCAUGUAGAAGGGCUCUGAA [Dora Explored 23 - Jieux - Exclusion 2] |  |  | 0.0671 µM | 0.111 µM |
| AAAAAACAUGAGGAUCACCCAUGUAAGGAUAUGUGAAAAAAAAAAUAAAAAAAAAAAAACAGAAGGUACAAAAA [LROPPY Exclusion 1 - v02_deltaG=3.34] |  |  | 0.0452 µM | 0.0477 µM |
| GCUGUGCUAGGAUAUACAUGAGGAUCACCCAUGUGAGAGAAAAAAGUGAGAAAGAAAAGUAGAAGGAGCGUAGG [salish99-ex3-100] |  |  | 0.0291 µM | 0.0592 µM |
| AACAGUACAGGAUAUACAUGAGGAUCACCCAUGUGAGCAUUAAAAGGCGUACCUCAAAGUAGAAGGGUACUGGA [JL Maslow Revisted mod 23] |  |  | 0.107 µM | 0.0189 µM |
| AACUGACAUGAGGAUCACCCAUGUCAGGAUAUGCUUCUAGGAAAAAUAAAAACUAGAUGCAGAAGGGAUAUGGG [Design 38] |  |  | 0.0222 µM | 0.0333 µM |
| AAAAAACAUGAGGAUCACCCAUGUCAGGAUAUGCUCAGCAAUAUUAAAAUAAAGAACGGUAGAAGGGACAGAAA [Bilbo Confounded 23 - Jieux - Exclusion 1] |  |  | 0.0358 µM | 0.0347 µM |
| AAGUUGUCAGGAUAUGCUUGUCGUCACAAAAGUGAUGACGAGCAGAAGGGACAUGAGGAUCACCCAUGUAAAGA [JL eternac mod 2] |  |  | 0.0658 µM | 0.117 µM |
| GAAACACAUGAGGAUCACCCAUGUCAGGAUAUGUAGAUAAAAAGAAAAUAAAAUAAAAACAGAAGGGACAAAAG [Mat - Same state - Mayanna Mod - D103] |  |  | 0.0644 µM | 0.0763 µM |
| AAAAAACAUGAGGAUCACCCAUGUCAGGAUAUUCGAAAAAAAAAAAAAAAAAAAAAAAGGAGAAGGGACGAAAA [DR Excl. 1] |  |  | 0.0434 µM | 0.0568 µM |
